Test [1] deals with T1, Elp123 sub-complex within the endogenous holoElongator (Elp6-TAP purification) (S. cerevisiae (endogenous in strain …, UniProt Q06706 1-1349; P42935 1-788; Q02908 1-557).
T1 construct: Elp1, S. cerevisiae, endogenous protein; Elp2, S. cerevisiae, endogenous protein; Elp3, S. cerevisiae, endogenous protein; copies: 2 + 2 + 2
The test can be described thus: negative-stain EM reconstruction with integrative modelling (EM map and cross-links); holoElongator from Elp6-TAP purification, 0.01% glutaraldehyde, gel filtration; 1% uranyl acetate; 31 Å. The settings on record: both partners purified. For orientation: SEC sorts molecules by how far they enter the pores of the column.

The target in test [2] is T2, untagged full-length Elp1 (S. cerevisiae, UniProt Q06706 1-1349).
T2 construct: Elp1, Elongator subunit 1, S. cerevisiae; source: E. coli BL21 pSarRare, purified (NiNTA, TEV cleavage, second NiNTA, gel filtration); not shown: His6, N-terminal, cleaved; GST, N-terminal, cleaved
T2 sequence (looked up): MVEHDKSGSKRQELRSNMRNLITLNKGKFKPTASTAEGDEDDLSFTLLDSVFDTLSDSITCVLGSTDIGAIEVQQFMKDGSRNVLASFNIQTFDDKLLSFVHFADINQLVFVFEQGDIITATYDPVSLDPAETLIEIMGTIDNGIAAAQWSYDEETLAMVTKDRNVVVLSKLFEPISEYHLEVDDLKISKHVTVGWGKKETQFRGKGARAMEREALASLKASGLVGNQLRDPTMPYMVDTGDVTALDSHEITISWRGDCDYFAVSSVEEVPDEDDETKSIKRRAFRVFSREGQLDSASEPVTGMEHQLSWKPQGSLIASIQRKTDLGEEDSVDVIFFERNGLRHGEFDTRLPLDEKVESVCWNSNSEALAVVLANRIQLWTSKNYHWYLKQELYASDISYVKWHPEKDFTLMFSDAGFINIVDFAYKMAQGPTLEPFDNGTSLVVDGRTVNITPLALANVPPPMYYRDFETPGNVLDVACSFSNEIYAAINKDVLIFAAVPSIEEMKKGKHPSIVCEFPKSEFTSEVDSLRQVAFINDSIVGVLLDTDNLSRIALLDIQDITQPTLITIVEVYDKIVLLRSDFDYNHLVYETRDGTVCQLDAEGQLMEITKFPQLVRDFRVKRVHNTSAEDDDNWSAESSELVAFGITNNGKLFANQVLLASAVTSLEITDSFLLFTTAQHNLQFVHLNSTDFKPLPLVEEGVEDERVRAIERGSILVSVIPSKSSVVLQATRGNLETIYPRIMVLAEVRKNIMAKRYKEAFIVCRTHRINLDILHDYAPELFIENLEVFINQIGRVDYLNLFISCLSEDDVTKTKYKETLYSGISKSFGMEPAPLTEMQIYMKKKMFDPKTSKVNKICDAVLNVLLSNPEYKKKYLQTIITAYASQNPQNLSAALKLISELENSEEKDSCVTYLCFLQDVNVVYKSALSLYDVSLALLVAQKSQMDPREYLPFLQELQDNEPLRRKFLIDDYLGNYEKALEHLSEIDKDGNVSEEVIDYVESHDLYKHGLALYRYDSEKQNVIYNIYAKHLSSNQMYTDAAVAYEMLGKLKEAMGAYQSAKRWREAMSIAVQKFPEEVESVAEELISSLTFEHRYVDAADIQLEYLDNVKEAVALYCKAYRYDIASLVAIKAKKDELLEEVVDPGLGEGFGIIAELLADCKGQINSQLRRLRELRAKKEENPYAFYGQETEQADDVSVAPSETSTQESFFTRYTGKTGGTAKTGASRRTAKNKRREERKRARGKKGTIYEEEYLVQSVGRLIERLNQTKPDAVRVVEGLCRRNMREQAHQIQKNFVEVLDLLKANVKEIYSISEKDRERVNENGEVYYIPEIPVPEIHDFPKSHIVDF
Description: pull-down; GST pull-down: 20 μg GST-tagged protein and increasing amounts of untagged partner with glutathione Sepharose, 2 h at 4°C, 20 mM Tris pH 7.5, 150 mM NaCl, 5 mM DTT, 0.1% Tween-20; five washes; SDS–PAGE, Coomassie. The note with it: both partners purified.

T1 sequence (P42935 whole entry, one chain of several): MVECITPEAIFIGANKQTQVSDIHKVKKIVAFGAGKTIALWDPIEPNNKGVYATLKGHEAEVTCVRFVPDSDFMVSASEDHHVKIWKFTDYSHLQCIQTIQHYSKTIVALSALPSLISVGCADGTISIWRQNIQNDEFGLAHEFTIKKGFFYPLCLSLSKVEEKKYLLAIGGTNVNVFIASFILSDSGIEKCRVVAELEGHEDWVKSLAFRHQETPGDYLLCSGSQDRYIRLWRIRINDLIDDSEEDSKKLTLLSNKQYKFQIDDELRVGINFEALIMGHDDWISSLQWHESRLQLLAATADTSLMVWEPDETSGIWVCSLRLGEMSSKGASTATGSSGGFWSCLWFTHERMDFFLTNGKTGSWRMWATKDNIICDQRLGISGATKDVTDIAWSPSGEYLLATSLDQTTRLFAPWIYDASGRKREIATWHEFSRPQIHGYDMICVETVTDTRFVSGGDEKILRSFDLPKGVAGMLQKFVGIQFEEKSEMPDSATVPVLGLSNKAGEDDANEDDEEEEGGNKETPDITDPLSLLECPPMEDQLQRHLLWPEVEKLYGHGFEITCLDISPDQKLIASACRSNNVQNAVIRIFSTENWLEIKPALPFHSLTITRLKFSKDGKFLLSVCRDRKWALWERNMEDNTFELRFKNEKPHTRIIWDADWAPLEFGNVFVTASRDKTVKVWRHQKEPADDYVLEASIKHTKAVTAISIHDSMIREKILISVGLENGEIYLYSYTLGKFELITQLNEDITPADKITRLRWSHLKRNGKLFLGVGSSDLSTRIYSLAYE

B1: hetero-hexameric Elp456 ring within the endogenous holoElongator (Elp6-TAP purification) (complex)
chain 1: MSFRKRGEILNDRGSGLRGPLLRGPPRTSSTPLRTGNRRAPGNVPLSDTTARLKKLNIADESKTKMGLDSSHVGVRPSPATSQPTTSTGSADLDSILGHMGLPLGNSVLVEEQSTTEFHSILGKLFAAQGIVHNRISDSSADKTRNGDTHVIVLSLNQMFAKELPGIYKGSRKQMKKNLISEEESKVTVQNLNETQRSTPSRYKDLKIAWKYKLADEKRLGSPDRDDIQQNSEYKDYNHQFDITTRLMPAPIASELTFIAPTQPVSTILSQIEQTIKRNDKKLIRIVIPSLLHPAMYPPKMFESSEIIGLMHGVRSLVKKYYERVVLFASISIDIITPPLLVLLRNMFDSVINLEPFNQEMTEFLERVYKSQPGKIQHGLVHILKLPVFTDRGEMRVLKSEWAFKNGRKKFEIEQWGIPVDDAEGSAASEQSHSHSHSDEISHNIPAKKTKISLDY
chain 2: MASSSHNPVILLKRILSLTESSPFILCLDSIAQTSYKLIQEFVHQSKSKGNEYPIVYISFETVNKPSYCTQFIDATQMDFVHLVKQIISYLPAATATQAKKHMVIIDSLNYISTEYITRFLSEIASPHCTMVATYHKDIKDENRTVIPDWNNNYPDKLTLLQFMATTIVDIDVVLTGTLDTEEVSELLNEFRIPRGLNNDIFQLRLVNKRKSGRSLEYDFIVNSNTHEYELLSTTKQEEESSSNGLETPEMLQGLTTFNLGTSNKQKLAKDQVALPFLEAQSFGQGGAIVYEYEKDDDYDEEDPYEDPF
chain 3: MGSVQRQDLVLFSDQSVLPAHFFQDSNSHNLFFITHQSCTQPLWMINALVETHVLGSPSSLNESSSSMLPSSTRSHAVLASFIHEQNYFTNSLNKLKIPSNNYNVLDFLSDFIVNNIHNKPRDKILSDVLAKFSAAIQNNPTDTIVIIEQPELLLSLVSGLTCSELNNKFITPLLRQCKVLIIVSNSDIFNIDEYDASVHSSNLQNFYKSSFIKSMINLNLNPLKTGFAKDVTGSLHVCRGGAPIATSNTSLHVVENEYLYLNEKESTKLFYR
notes: Elp4, S. cerevisiae, endogenous protein; Elp5, S. cerevisiae, endogenous protein; Elp6, S. cerevisiae, endogenous protein with TAP tag; Only part of the TAP tag is left after TEV elution; copies: 2 + 2 + 2
A word on the stoichiometry N: it is a count of units in the complex or per binding partner. In the case of B1, the “stoichiometry N” value in test [1] was determined as 1.

B2: GST-tagged Elp3 KAT domain (aa348–557) (domain or fragment, S. cerevisiae, UniProt Q02908 348-557, looked up)
chain: SYSANALVDLVARILALVPPWTRIYRVQRDIPMPLVTSGVDNGNLRELALARMKDLGTTCRDVRTREVGIQEVHHKVQPDQVELIRRDYYANGGWETFLSYEDPKKDILIGLLRLRKASKKYTYRKEFTSQRTSIVRELHVYGSVVPLHSRDPRKFQHQGFGTLLMEEAERIAKEEHGSEKISVISGVGVRNYYGKLGYELDGPYMSKRI
notes: Elp3, S. cerevisiae, lysine acetyl transferase (KAT) domain, residues 348–557; also called KAT domain of Elp3; source: E. coli BL21 pSarRare, purified (NiNTA, gel filtration); not shown: His6, N-terminal, kept; GST, N-terminal, kept
Turning to B2, the binding result in test [2] is reported as “binds”.

These data come from publication PMC5286394, “Architecture of the yeast Elongator complex” (EMBO Reports, 2016).
